According to IntAct's records for PubMed 17679699:

B1: Catenin beta-1 (Homo sapiens), P35222 (parent)
chain: MATQADLMELDMAMEPDRKAAVSHWQQQSYLDSGIHSGATTTAPSLSGKGNPEEEDVDTSQVLYEWEQGFSQSFTQEQVADIDGQYAMTRAQRVRAAMFPETLDEGMQIPSTQFDAAHPTNVQRLAEPSQMLKHAVVNLINYQDDAELATRAIPELTKLLNDEDQVVVNKAAVMVHQLSKKEASRHAIMRSPQMVSAIVRTMQNTNDVETARCTAGTLHNLSHHREGLLAIFKSGGIPALVKMLGSPVDSVLFYAITTLHNLLLHQEGAKMAVRLAGGLQKMVALLNKTNVKFLAITTDCLQILAYGNQESKLIILASGGPQALVNIMRTYTYEKLLWTTSRVLKVLSVCSSNKPAIVEAGGMQALGLHLTDPSQRLVQNCLWTLRNLSDAATKQEGMEGLLGTLVQLLGSDDINVVTCAAGILSNLTCNNYKNKMMVCQVGGIEALVRTVLRAGDREDITEPAICALRHLTSRHQEAEMAQNAVRLHYGLPVVVKLLHPPSHWPLIKATVGLIRNLALCPANHAPLREQGAIPRLVQLLVRAHQDTQRRTSMGGTQQQFVEGVRMEEIVEGCTGALHILARDVHNRIVIRGLNTIPLFVQLLYSPIENIQRVAAGVLCELAQDKEAAEAIEAEGATAPLTELLHSRNEGVATYAAAVLFRMSEDKPQDYKKRLSVELTSSLFRTEPMAWNETADLGLDIGAQGEPLGYRQDDPSYRSFHSGGYGQDALGMDPMMEHEMGGHHPGADYPVDGLPDLGHAQDLMDGLPPGDSNQLAWFDTDL
partner: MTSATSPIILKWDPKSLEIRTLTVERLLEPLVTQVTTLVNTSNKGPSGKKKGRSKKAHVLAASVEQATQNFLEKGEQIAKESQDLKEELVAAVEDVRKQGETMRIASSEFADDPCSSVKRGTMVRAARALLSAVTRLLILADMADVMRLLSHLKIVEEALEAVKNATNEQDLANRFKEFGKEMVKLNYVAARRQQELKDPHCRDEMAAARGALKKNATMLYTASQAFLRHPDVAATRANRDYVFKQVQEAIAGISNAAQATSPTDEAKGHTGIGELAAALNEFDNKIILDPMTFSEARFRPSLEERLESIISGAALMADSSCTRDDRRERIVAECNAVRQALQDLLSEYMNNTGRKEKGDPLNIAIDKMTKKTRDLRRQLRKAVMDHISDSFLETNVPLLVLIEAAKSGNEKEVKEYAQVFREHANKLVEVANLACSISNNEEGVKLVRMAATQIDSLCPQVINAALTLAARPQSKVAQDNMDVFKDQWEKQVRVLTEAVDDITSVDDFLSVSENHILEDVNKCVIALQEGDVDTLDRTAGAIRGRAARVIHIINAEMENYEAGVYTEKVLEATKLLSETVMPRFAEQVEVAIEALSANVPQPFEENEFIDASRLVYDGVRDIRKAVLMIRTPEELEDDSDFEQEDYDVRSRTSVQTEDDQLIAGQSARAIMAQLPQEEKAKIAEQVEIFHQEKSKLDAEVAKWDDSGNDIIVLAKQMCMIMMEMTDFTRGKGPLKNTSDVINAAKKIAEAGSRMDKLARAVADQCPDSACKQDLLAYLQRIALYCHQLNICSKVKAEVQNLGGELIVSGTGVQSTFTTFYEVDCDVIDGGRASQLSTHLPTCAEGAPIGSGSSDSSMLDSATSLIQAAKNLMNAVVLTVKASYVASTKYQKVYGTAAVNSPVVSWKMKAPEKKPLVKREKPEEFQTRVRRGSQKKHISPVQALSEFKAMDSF

Variants of: B1
Conditions: with ctna2_human CTNNA2, P26232

| effect of a mutation on the interaction | Variant |
| --- | --- |
| disrupting interaction strength | L132A |
